15 sequences from the DeepSol protein solubility set can be followed below.

The nature of this series: soluble on expression in E. coli; label from the status in PepcDB or PDB records.
As for “MAHHHHHHMRGMWATLRLFRCDRNFTALNRGNGVYNIQSVASRDCALCHSQRAVKHRSLSPDDPFGEKSASDDPVDGFYGAWSNINVDAFANAAASEEVRMAHFGPEWSRFTTIGRLSVKKMNESGSSASSGSEDCGMASQHPLGAEELHMRELRERRKVLERNYSSYDEYVAKELGLSEVDDCDNACGLQSEDPEIVADGEEAEDNDDADEDADNVPLPQFMRRSGCEQENDTGVNIYSSDQQQQQQMGGVPANTVNEGHVPQRRGTLHPPEPLAQVVFCQLGEPHGDSELPREDPLHWDTEEVILWIRRMEAAQCVLSSGSLACDSLVMEDPSMQEAFRMARIDGDYLLKNTVPATMFQVMRRWHLRRHEIVLAVLKEQQRRGIDSHEINTSIFDDPIMRGILDSGRAKLDEVVLMVTPMLVQETICQGYLYCR”, the “soluble on expression in E. coli” value was “not soluble”.

Consider “MSLQEGEFEPTWESLQNYKVPEWFRNAKFGIWAHWGPQCVEGSGDWMARSLYLEGSREYKHHVEHYGHPSEVGFKDILPLFKAEKWDPDKLVSFYKKIGAQYFFALGNHHDNYDLWDSQYQEWNSVNIGPKKDILAGWAEAAKKNGLPFGISFHADHAWSWYEPAQRYDRHGEKAGVPYDGCLTKEDGKGKWWEGYDPQKLYAQNHPLSAGSWADGMIHRQWAWGNGVCIPTQEYVTNFYDRTVDAINRYNPDLIYFDVTGVPFYPISDAGLKIAAHFYNHNMVVRKGDFSAVMFGKILTDEQRKALVWDVERGSPNSIYEEPWQTCSCLGGWHYDTRLAENGWYKSASDVVKLLVDVVSKNGNLLLSVPLRADGTFDEKEEAILNEFGNWMSMNKEAIYDTRPWKVFGEGPIANADIKINAQGFNEGAYTKATASEIRFTQTKKYLYATVLAWPEEKQVVIQSLATGSELYPDKITKIELLGYGKVSFTRTAQGVVIDMPDVQLNKIAPVFKIKKEGHHHHHH”, for which the “soluble on expression in E. coli” value is “soluble”.

For “MGSDKIHHHHHHMTTNIKTDFSPPATATPVLEMQGIAKRFHGVPALQGVNLTIYPGEVHALMGENGAGKSTLMKILAGAYIADEGEIRINGKGVKITDPGTARQAGINLIYQELNVAPNLTVTENIFMGSELTRGQFLDRKAMELEAQQVLASLGASFAPTDIVGTLAIAEQQQVEIARALKDNSRILVMDEPTAALSDRETERLFEVIRKLRNDGIAIIYISHRMEEIYALADRISVLRDGQYIGSLTREEISPQRLVQMMVGRSMQDFYEHQRQSNPGPVVLEVRNISDGRKVQPASFQLRAGEILGLAGLVGAGRTEVSRLIFGADRKVSGEVFLNGKKLEIHSPSDAIAVGIGYVPEDRKDQGLFLEMSSRKNIGLNRLKQDANLGIVNWGSVNKIATDAVENFHIRLANLEIRAVDLSGGNQQKLLLARWLAINPRVLMLDEPTRGVDIGAKSEIYRIISDLSAQGVAILMVSSELPEIVGLSDRVLVMREGQLVGELDNSIGKEITQENIMHYATGASEVTAS”, the “soluble on expression in E. coli” value is “not soluble”.

For “MSLERTTHQSLNGSWQFQPVAATLHVTPQLQAPAGGWKKINVPDNWYRQGHDISGYAWYQTRFALDAHNASRVAHLVFHGVDYSADVWLNDRYLGHHTGYFQPFEFDVTGLVKPGENQLRVLVNSPLEQPQDWSLHKRLVKGIFSHHDTRPGGAWSERGQEKNTGGIWAPVELQFADRAAVRQLQVTPRKQATEANPQQWVVSTEADIHHDVSHETSVTVEARILPENFKGASFAFKQSQTLQPGGNHIAFSFPVDNPALWWPYEYGHPNLYRLELSVKDASGKLLDQREQVFGVREVKVDDGLQWFINGRRMFLRGTNYIASQWLAEMTPDRYRRDLEMMQAAHINAVRVHAHVTGQDFYELCDRMGILVTQDFPLLWGYSDDPDFIAEARRQAKDMVQLLQRHPSIISWTMHNEPPWDSPWMAQKYPDYHPDINRRLDALLYEDVSKLDTLRVVRKESATKEHEWMGWYFDHWLAFSRPAPTPWSTEFGAQALPNLKSLERMFSKALLWPDTEAKWQVWEYHNFQRKETFEFAGVKQGGNIEEFIANSQHYQARLIQFAVENYRRQRYAPVSAVFQFMFVENWPSINWGIVDYWREPKAGYEALRVAYQPVLPSLEWKEGHHHHHH”, the “soluble on expression in E. coli” value is listed as “not soluble”.

With “MGSDKIHHHHHHMDKDERLHYLDSLERLRGSKVLVYFAYTPLDDSILVPLYEQLKAIGHTEKIDLLLHSYGGAVDTPYKVVMLIREFCNEFGVIVPFVAKSAASMLVLGADEVVMGPISELGPIDPLIKHPIYKELWVPVQAIRYCIDYLQRSIESNPNPELVTGIITPMINKLDPWLIGDYEKALKASHQYAEALLSRYMLKDNPELVPVVTRALTEGYFSHGYPIGRQEAKELGLRVTEAEDELWDVIWSLYRGYEELFSTCDSGDRV”, the “soluble on expression in E. coli” value is recorded as “not soluble”.

For the sequence “MVAHDETGGLLPIKRTIRVLDVNNQSFREQEEPSNKRVRPLARVTSLANLISPVRNGAVRRFGQTIQSFTLRGDHRSPASAQKFSSRSTVPTPAKRRSSALWSEMLDITMKESLTTREIRRQEAIYEMSRGEQDLIEDLKLARKAYHDPMLKLSIMSEEELTHIFGDLDSYIPLHEDLLTRIGEATKPDGTVEQIGHILVSWLPRLNAYRGYCSNQLAAKALLDQKKQDPRVQDFLQRCLESPFSRKLDLWSFLDIPRSRLVKYPLLLKEILKHTPKEHPDVQLLEDAILIIQGVLSDINLKKGESECQYYIDKLEYLDEKQRDPRIEASKVLLCHGELRSKSGHKLYIFLFQDILVLTRPVTRNERHSYQVYRQPIPVQELVLEDLQDGDVRMGGSFRGAFSNSEKAKNIFRIRFHDPSPAQSHTLQANDVFHKQQWFNCIRAAIAPFQSAGSPPELQGLPELHEECEGNHPSARKLTAQRRASTVSSVTQVEVDENAYRCGSGMQMAEDSKSLKTHQTQPGIRRARDKALSGGKRKETLV”, the “soluble on expression in E. coli” value is reported as “soluble”.

With “MTVAVSPDGLPALVLNADYRPLSYYPLSLWSWQDAIKAVFLDRVNIVAEYEHAVSSPTFSMKLPSVVSLKAYVKPSRHPAFTRFNVFLRDRFQCQYCGTPDDLTFDHVIPRHRGGATTWENVVAACSPCNLRKGGMMPAHAKMWPLQKPYQPTVHDLHNNGRLFPPNHLHESWMDYLYWDVELEPLEHHHHHH”, the “soluble on expression in E. coli” value is listed as “not soluble”.

As for “MATRADEDGDTPLHIAVVQGNLPAVHRLVNLFQQGGRELDIYNNLRQTPLHLAVITTLPSVVRLLVTAGASPMALDRHGQTAAHLACEHRSPTCLRALLDSAAPGTLDLEARNYDGLTALHVAVNTECQETVQLLLERGADIDAVDIKSGRSPLIHAVENNSLSMVQLLLQHGANVNAQMYSGSSALHSASGRGLLPLVRTLVRSGADSSLKNCHNDTPLMVARSRRVIDILRGKATRPAS”, the “soluble on expression in E. coli” value was “soluble”.

As for “MSLNQRTLFDKIWDEHVVDVGADGTTLLYVDRHFLHEVTSPQAFRGLQLAGRRPWRSDANLAMPDHNVPTKDRAAHLDDALARAQIEALDRNCAEFAVPLFRLSDPRQGIVHVSGPEQGASLPGSVIVCGDSHTSTHGALATIAHGIGTSEVEHVLATQTLLARKPARMRVNFHGVAGAGVSAKDMALAMIAKVGAAGAQGYAIEYAGEAVRCLSVEARMTLCNMSIEAGARCGMVAVDDKTIEYLRGRPMAPRGESWDLAVRTWRALVSDHDAQFDVEIEIDVGMLGPLVTWGTSPDMVISVDEKIPDPAAEKDGTRRAGMERALRYMDLAPGTPITDVRLDRIFIGSCTNSRLEDLRAAAEVIRGKHVAASIRQALVVPGSGLVKQQAENEGLHQLFIDAGFEWRDAGCSMCVGMNADHLLSGERCASTSNRNFEDRQGVGGRTHLVSPAMAAAAAIAGHFVDIRRSEGHHHHHH”, the “soluble on expression in E. coli” value is listed as “not soluble”.

Regarding “MKSHQFSTALCQNTTESNGQPLRFPSPAKLNLFLYINGKFPNGYHELQTLFQFLDFGDWLDISIREQDNQIVLTPEIPNLKTENNLIYRAAKLLQEKANIQLGANIHLDKILPMGGGVGGGSSNAATALVSLNYLWQANLSIDELAKLGLTLGADVPIFVHGHAAFAEGVGEKITYCEPAEKWFVILKPDDSISTAVIFQDPNLPRNTPKKSLAQLLSEPYKNDCEKVVINHYSNVEKALNWLLQYAPARLTGTGACVFAEFDHEAEAQAVFRQKPEAFFGFVAKGLNVSPLHAMLKQLSSTHTHRQSKPEVLLEHHHHHH”, the “soluble on expression in E. coli” value is reported as “soluble”.

Take “MVVYGKQKYIMKRCFYMNKKLKTEAVDHLFQAILTLKSTEECYSFFEDVCTVNELLSFSQRYEVAKMLREKRTYLEIADKTGASTATISRVNRSLNYGNDGYDMVFKRLEDQAAEDNEA”: the “soluble on expression in E. coli” value is on record as “not soluble”.

As for “MSTENTLSVADLARENVRNLVPYQSARRLGGNGDVWLNANEFPTAVEFQLTQQTLNRYPECQPKAVIENYAQYAGVKPEQVLVSRGADEGIELVIRAFCEPGKDAILYCPPTYGMYSVSAETIGVERRTVPALENWQLDLQGISDNLDGTKVVFVCSPNNPTGQLINPQDLRTLLELTRGKAIVVADEAYIEFCPQATLTGWLVEYPHLVILRTLSKAFALAGLRCGFTLANEEVINLLLKVIAPYPLSTPVADIAAQALCPQGINAMRDRVAQTVQERQYLVNALQQTACVEHVFDSETNYILARFTASSSVFKSLWDQGIILRDQNKQPSLSGCLRITVGTRQENQRVIDALRAEPV”, the “soluble on expression in E. coli” value is recorded as “not soluble”.

“MAHHHHHHMGKPKYLKKKQAAAAAGSEDGADKDVSDNTENTNGSPTTTNALGKQSEAAKEEPHSSGAMVSFANPVYRQGVNDILVEKLDISYQGNAILENATLNLVSGHRYGLVGPNGCGKSTLLRVLGCHEIPFPSHVDRYYVSQEVEASDMSALDAVLAVDKEREKLESEMEDLALGDQEDPHVLSRLDDIYKRLDELDADTAAARAGKILFGLGFTKEMQRRPTKAFSGGWRMRISLAQALFINPTVLLLDEPTNHLDIEAVVWLENYLSKFKKTLFMVSHSQDFMNNVCTDICHMHLKKLNCYDGNYDQYCITREEKESNQMKKYQWEQNQIKNMKEYIARFGHGSAKLARQAQSKEKTLAKMTRGGLTDAVVKDSRINFEFPCAGPLPPPMLQFREVSFNYPGRPSLFTNLDLGVNMDSRICLVGPNGAGKTTLTKLMCRELEPTAGYVAKNAHCVMARFHQHFVDQINMDLTPLEWMSQEYPDVTQPPILRSALGRFGVSGKAQMTPMKTLSDGQKSRVVFAWMAYKRPHFMILDEPTNHLDIESIDALADAINNFEGAVVVVSHDLRLLAQVADEIWIVEQGEAKRFNGDIADYKEHVQNEVNRMMQNYAASL”: the “soluble on expression in E. coli” value is “not soluble”.

With “MGSDKIHHHHHHMEDLQRLYPIGIQTFSKIREGNFLYVDKTEYVYRMTHSASSYMFLSRPRRFGKSLLTSTLHSYFSGREELFRGLAMEKLEKEWIQYPVLHFDMSMAKHVDKDKLMNLLDFMLTEHERTLGIDAAGTDPNLRLTNLIKRAYEQTGRKVVVLIDEYDAPLLDVVHERENLGVLRDVMRNFYSPLKACDPYLRYVFLTGITKFSQLSIFSELNNIKNISMDEPYAAICGITENEILTQMKEDVDRMAVKLNITAEEVLAKLKENYDGYHFTYPSPDIYNPFSLLNAFADGKFNSYWFGSGTPTYLIKMLDKFGVEPSEIGNKLAAVEEFDAPTETMSSITPLLYQSGYVTIKDYDKELELYTLDIPNKEVRVGLMRSLLPYYVTNDTREATNMVAFISRDIR”, the “soluble on expression in E. coli” value is recorded as “not soluble”.

As to “MSLRDKKGPVNKRVDFLSNKLNKYSIRKFTVGTASILIGSLMYLGTQQEAEAAENNIENPTTLKDNVQSKEVKIEEVTNKDTAPQGVEAKSEVTSNKDTIEHEASVKAEDISKKEDTPKEVANVAEVQPKSSVTHNAEAPKVRKARSVDEGSFDITRDSKNVVESTPITIQGKEHFEGYGSVDIQKNPTDLGVSEVTRFNVGNESNGLIGALQLKNKIDFSKDFNFKVRVANNHQSNTTGADGWGFLFSKGNAEEYLTNGGILGDKGLVNSGGFKIDTGYIYTSSMDKTEKQAGQGYRGYGAFVKNDSSGNSQMVGENIDKSKTNFLNYADNSTNTSDGKFHGQRLNDVILTYVASTGKMRAEYAGKTWETSITDLGLSKNQAYNFLITSSQRWGLNQGINANGWMRTDLKGSEFTFTPEAPKTITELEKKLKRFHSRKNVNLIRIEGHHHHHH”, the “soluble on expression in E. coli” value is recorded as “not soluble”.
